Measured values: patent US20040077547A1, “FVIIa antagonists” (Genentech, Inc., priority 1999, published 2004)
Where no end group is shown, it is not given here.

Tests used:
recombinant human FVIIa [1] = molecular target: T1, recombinant human FVIIa (Homo sapiens, UniProt P08709); experiment: FVIIa Binding ELISA (competition with TF183b); conditions: for affinity for FVIIa: compared with SEQ ID NO: 4
T1 construct: proteolysis of FVII to FVIIa at a site (Arg152-Ile153 for human FVII (hFVII))
T1 sequence (P08709 61-212 limits assumed): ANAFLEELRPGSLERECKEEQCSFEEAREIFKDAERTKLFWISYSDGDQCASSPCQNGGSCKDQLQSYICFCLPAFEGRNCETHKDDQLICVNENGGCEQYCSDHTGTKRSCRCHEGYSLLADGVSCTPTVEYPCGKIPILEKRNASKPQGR
T1 sequence (P08709 213-466 limits assumed): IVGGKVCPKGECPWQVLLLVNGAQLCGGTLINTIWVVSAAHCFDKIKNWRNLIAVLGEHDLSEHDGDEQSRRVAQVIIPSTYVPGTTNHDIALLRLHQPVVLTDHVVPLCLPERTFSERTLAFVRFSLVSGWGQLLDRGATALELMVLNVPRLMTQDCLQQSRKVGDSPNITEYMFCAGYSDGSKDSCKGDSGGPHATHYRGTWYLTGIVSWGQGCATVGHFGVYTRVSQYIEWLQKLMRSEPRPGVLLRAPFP
Experimental: FVIIa Binding ELISA—The ability of peptides to compete with biotinylated TF183 (TF183b) (or other peptides described herein that could be biotinylated as described) for binding to FVIIa was monitored using a FVIIa Binding ELISA or a TF-FVIIa Binding ELISA. Microtiter plates were coated overnight with 2 μg/ml recombinant human FVIIa or 2 μg/ml TF1-243 (Paborsky, L. R., et al., J. Biol. Chem. 266: 21911 (1991)) in 50 mM ammonium bicarbonate pH 9 at 4° C.; all other steps were performed at room temperature. Plates were then blocked with 1% BSA in Assay Buffer (50 mM HEPES, pH 7.2, 5 mM CaCl2, 150 mM NaCl). For the TF-FVIIa ELISA, recombinant human FVIIa (2 μg/ml) in 1% BSA in Assay Buffer was added for 30 min to the wells previously coated and blocked with TF to form the TF-FVIIa complex. Dilutions of peptide in Assay Buffer plus 0.05% Tween 20 were added to the microtiter plate along with 5 nM TF183b for 1 h. The microtiter plate was washed 3 times with Assay Buffer plus 0.05% Tween 20 and the biotinylated-peptide bound was detected with a Streptavidin/HRP conjugate (Streptavidin-POD, Roche Molecular Biochemicals). The amount of HRP bound was measured using ABTS/H2O2 substrate (Kirkegaard and Perry Laboratories) and monitoring the absorbance at 405 nm. The absorbance at 405 nm was plotted versus the concentration of peptide originally added to the well. Sigmoidal curves were fit to a four-parameter equation by nonlinear regression analysis (Marquardt, J. Soc. Indust. Appl. Math. 11:431-441 (1963); the concentration of each peptide required to give a half-maximal signal in the assay was calculated from the curves and is referred to as the IC50 value.

TF-FVIIa = molecular target: T2, TF-FVIIa (Homo sapiens, UniProt P08709); experiment: FX Activation Assay; assay type: biochemical; conditions: compared with SEQ ID NO: 4
T2 construct: proteolysis of FVII to FVIIa at a site (Arg152-Ile153 for human FVII (hFVII))
Experimental: FX Activation Assay—Activation of FX by TF-FVIIa was monitored at room temperature as a function of peptide concentration. Each assay sample contained 100 μl of 460 pM relipidated TF1-243 (Kelley, R. F., et al. Blood 89:3219-3227 (1997)) and 30 pM FVIIa in HBS/Ca buffer (20 mM HEPES, pH 7.4, 5 mM CaCl2, 150 mM NaCl, 0.1% PEG 8000); after 20 min, 25 μl of peptide diluted in HBS/Ca Buffer was added. Following a 30 min incubation the reaction was initiated by the addition of 25 μl of 1 μM FX in HBS/Ca (Note: this yields a final concentration of 306 pM TFPC, 20 pM FVIIa, and 166 nM FX). For kinetic analysis, the final concentration of FX was varied from between 20 and 500 nM. Aliquots of 25 μl were removed at 1, 3, 5, 7 and 9 min and quenched in 25 μl of 50 mM EDTA. The FXa generated in each aliquot could be measured by the addition of 100 μl of 250 μM Spectrozyme fXa (American Diagnostica), 50 mM Tris, pH 8, 50 mM NaCl, 0.0025% Triton X-100. The rate of FXa generated at each peptide concentration was proportional to the initial slope of the absorbance at 405 nm vs. time. Sigmoidal curves were fit to a four-parameter equation by nonlinear regression analysis (Marquardt, J. Soc. Indust. Appl. Math. 11:431-441 (1963)); the concentration of each peptide required to give a half-maximal signal in the assay was calculated from the curves and is referred to as the IC50 value.

TF-FVIIa complex = molecular target: T3, TF-FVIIa complex (Homo sapiens, UniProt P08709); experiment: Peptide-phage binding to immobilized TF-FVIIa
T3 construct: proteolysis of FVII to FVIIa at a site (Arg152-Ile153 for human FVII (hFVII))
Experimental: (§1) Selection Conditions—TF1-243 (Paborsky, L. R., et al., J. Biol. Chem. 266: 21911 (1991)) or recombinant human FVIIa (2 μg/ml each) were immobilized directly to Maxisorp plates (Nunc) in 50 mM ammonium bicarbonate, pH 9.3 by incubating overnight at 4° C. Wells were blocked using Sorting Buffer (50 mM HEPES, pH 7.2, 5 mM CaCl2, 5 mM MgCl2, 150 mM NaCl, 1% BSA) for 1 h at 25° C. Recombinant human FVIIa (2 μg/ml) in Sorting Buffer was added for 30 min to wells previously coated and blocked with TF to form the TF-FVIIa complex. Phage from the libraries described above were pooled into 3 groups. Pool A contained XiCXjCXk where j=5-7; Pool B contained X4CX2GPX4CX4, X20 and XiCXjCXk where j=4; Pool E contained XiCXjCXk where j=8-10. Phage from each pool were incubated with the immobilized targets in Sorting Buffer for 3 h at 25° C.; generally about 5×10^10 phage were added at the beginning of each round. Unbound phage were removed by repetitive washing with Wash Buffer (50 mM HEPES, pH 7.2, 150 mM NaCl, 0.005% Tween 20); remaining phage were eluted with 500 mM KCl, 10 mM HCl, pH 2. The eluted phage were then propagated in XL1-Blue cells with VCSM13 helper phage (Stratagene) overnight at 37° C. Enrichment could be monitored by titering the number of phage which bound to a target coated well compare to a well coated with BSA. […]

TF = molecular target: T4, TF (Homo sapiens, UniProt P13726); experiment: Peptide-phage binding to wells coated with TF; conditions: polyvalent phage display; also BSA-coated wells
T4 construct: TF1-243 for membrane tissue factor composed of the extracellular domain and transmembrane amino acid residues 1-243
Experimental: as §1

recombinant human FVIIa [2] = molecular target: T1, recombinant human FVIIa; experiment: Peptide-phage binding to immobilized FVIIa; conditions: polyvalent phage display
Experimental: as §1

BSA = molecular target: T5, BSA (bovine, UniProt P02769 25-607); experiment: phage binding to coated wells
T5 construct: Control coat
T5 sequence (P02769 25-607 limits assumed): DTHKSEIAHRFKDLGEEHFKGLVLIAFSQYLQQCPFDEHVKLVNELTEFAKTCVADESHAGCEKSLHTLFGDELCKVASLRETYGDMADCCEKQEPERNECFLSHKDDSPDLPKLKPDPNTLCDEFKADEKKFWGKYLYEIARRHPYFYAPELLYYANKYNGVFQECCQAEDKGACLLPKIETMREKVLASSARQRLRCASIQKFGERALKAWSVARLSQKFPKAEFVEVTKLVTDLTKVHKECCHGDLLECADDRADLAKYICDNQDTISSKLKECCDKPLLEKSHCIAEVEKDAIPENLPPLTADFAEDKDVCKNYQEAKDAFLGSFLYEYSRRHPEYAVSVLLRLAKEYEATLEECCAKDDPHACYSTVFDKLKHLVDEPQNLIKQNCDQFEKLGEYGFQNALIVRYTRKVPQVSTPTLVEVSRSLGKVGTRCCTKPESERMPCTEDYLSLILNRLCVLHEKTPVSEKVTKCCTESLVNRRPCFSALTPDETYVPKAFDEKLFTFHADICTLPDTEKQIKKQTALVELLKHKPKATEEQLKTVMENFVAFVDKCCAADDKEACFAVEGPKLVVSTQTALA

T3 sequence (P13726 33-275 partner limits assumed, one chain of several): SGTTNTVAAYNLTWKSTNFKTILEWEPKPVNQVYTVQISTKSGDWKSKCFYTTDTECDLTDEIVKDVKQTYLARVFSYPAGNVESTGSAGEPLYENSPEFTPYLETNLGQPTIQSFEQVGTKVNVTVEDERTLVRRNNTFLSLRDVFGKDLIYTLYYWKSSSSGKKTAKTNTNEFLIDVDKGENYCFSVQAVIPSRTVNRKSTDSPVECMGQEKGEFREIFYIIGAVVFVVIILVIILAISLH
T2 sequence (P13726 33-275 partner limits assumed, one chain of several): as above
T4 sequence (P13726 33-275): as the sequence (P13726 33-275 partner limits assumed, one chain of several) above

EEWEVLCWTWETCER [TF183]
IC50 for FVIIa (recombinant human FVIIa [1]; compared with TF65 (SEQ ID NO: 4), values in FIG. 4, not given): decreased IC50

EEWEVLCWTWETCERGEG [TF100]
ability to inhibit FX activation (TF-FVIIa): increased ability to inhibit FX activation | affinity for FVIIa (recombinant human FVIIa [1]): improved affinity

SAEWEVLCWTWEGCGSVGLV [TF53]
binding to covalently and noncovalently active site blocked TF-FVIIa (TF-FVIIa complex; active site alkylated with biotinylated EGR chloromethylketone or blocked by TF7I-C): bound | binding of phage bearing the sequence to immobilized TF-FVIIa (TF-FVIIa complex; polyvalent phage display): bound specifically | binding of phage bearing the sequence to wells coated with TF (TF): did not bind | binding of phage bearing the sequence to immobilized FVIIa (recombinant human FVIIa [2]): bound specifically

TF100Z: TF100 peptide fused to the Z consensus domain of protein A (EEWEVLCWTWETCERGEGGGGSGG)
ability to inhibit FX activation (TF-FVIIa): increased ability to inhibit FX activation | affinity for FVIIa (recombinant human FVIIa [1]): improved affinity

B1: TF53 peptide-phage (polyvalent phage clone from Pool A bearing SAEWEVLCWTWEGCGSVGLV) (peptide)
peptide: SAEWEVLCWTWEGCGSVGLV
modifications: cysteine pairing not given here; also: displayed on phage as a coat-protein fusion
binding result (BSA): no binding
